# Measurements taken from PMC6140506 (Proceedings of the National Academy of Sciences of the …, 2018).
# Where two headings read alike, the source gives them in different places.
# How the values were obtained:
# Test in all cases: SPR
# Bet v 4 [1] = biological target: Bet v 4 (UniProt Q39419)
# Ole e 3 [2] = biological target: T1, Ole e 3 (Olea europaea (common olive), UniProt O81092)
# Phl p 7 wild-type = Phl p 7 wild-type (Timothy grass, UniProt O82040)
# Bet v 4 [3] = biological target: Bet v 4 (UniProt Q39419); remark: listed apart in the source
# Ole e 3 [4] = biological target: T1, Ole e 3; remark: listed apart in the source
# Sequence of Bet v 4 (Q39419 whole entry): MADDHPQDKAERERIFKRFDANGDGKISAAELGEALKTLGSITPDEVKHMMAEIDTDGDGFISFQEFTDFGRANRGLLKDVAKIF
# Sequence of Phl p 7 wild-type (O82040 whole entry): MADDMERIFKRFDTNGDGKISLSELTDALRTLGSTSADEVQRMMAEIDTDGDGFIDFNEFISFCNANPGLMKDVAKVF
Binder,fold weaker binding than Phl p 7 (Bet v 4 [1]),binding result (Ole e 3 [2]),Kd (Phl p 7 wild-type),fold weaker binding than Phl p 7 (Bet v 4 [3]),binding result (Ole e 3 [4])
"102.1F10 IgE (antibody, V domains shown) VH: QVQLVQSGAEVRNPGASVKVSCKASGYTFTSYAIHWVRQAPGHRLEWVGRINTDNGNTKYSQKFHGRVALSRDTSASTTYMDLSSLNSEDTAVYYCARAFYYSSGVMFDSWGQGALVTVSS VL: QSALTQPPSVSGAPGQRVSISCTGGSSNFGAGYDVHWYQQLPATAPKLLIYGNNNRPSGVPDRFSGSKSGTSASLAITGLQAEDEGDYFCQSFDTSLSGWIFGGGTKLTVL",1000 fold,binds,0.17 nM,–,–
"102.1F10 Fab (Fab, V domains shown) VH: QVQLVQSGAEVRNPGASVKVSCKASGYTFTSYAIHWVRQAPGHRLEWVGRINTDNGNTKYSQKFHGRVALSRDTSASTTYMDLSSLNSEDTAVYYCARAFYYSSGVMFDSWGQGALVTVSS VL: QSALTQPPSVSGAPGQRVSISCTGGSSNFGAGYDVHWYQQLPATAPKLLIYGNNNRPSGVPDRFSGSKSGTSASLAITGLQAEDEGDYFCQSFDTSLSGWIFGGGTKLTVL",–,–,–,1000 fold,binds
